Test results: patent US12077763B2, “RNA-based control of powdery mildew” (Greenlight Biosciences, Inc., priority 2021, dated 2024)

B1: GS1814: dsRNA trigger SEQ ID NO 161; gene target Importin subunit beta-3 (nucleic acid)
DNA: TTATTGGTGGTAGAATGTTCAAAACCTCTGATATAAGTTCATAGTATTTTTGCTTGGATTTTTTGTTGAGACTCCTGAAGAATGAAGCGAAAGCTTCCATAGCGGCCAGTCGGACTGTCACGTCATCATCCTTAAATCCCTTGGTAAAAGCAGAAAGAACAGTATCTTCATGCTGCTTTTCGATTATTCTAGGAGTTGTTGAGAAGATTCTATAGGCAATCTCACGTTGGCCCATCACTTGCGACATACTGAGTGTAAAGAGAACACCTAGAATTTCGGGCCATTGCAACTTATCATCGGAGTACTGCCTAGCGACTTCTGCGACTGCATCACCTATCTTATTTCTTGTAGACGTTTCGGTTTCAGAGCTAAGGGCTTCAAGAAGTTTTTGTCTGATAATATGTCCTTGTTCTGTCGGCAAAGAGATAAATGTTTCCACTGACTGATTATTTTGTAATTTTCGAGTCTTTGAAGCTATCCGTCTGAAGATGACTGCAGCAAAAGAGCGTTTCGCAGGATCGTTTGAGCCCTGAATTTGTTCCACCAGGCCAATCAAGAGCATCTCTGGTTTAAGCAACGTCCAATTATTCGTTAAAT
B2: GS3917 (nucleic acid)
sense: CCAGGCUAAAUCUGUGCUCCAAACACAGUCAGUAAUACAGACUUUAAUUGCUGAGUGUUUAUCUUUGGGGAAAACAAAAAUGAUUAUUGAUCUCUCCUCGAAUAGUGGAGGUAAUUUGGUCGUUGGUUAUGACACAUUCCGACAAUUUUUCCCUACCAUUGAACAGCCAGGUUAUUCACGAUUUCGAUUACACGAGGCGCUAAAAAUUAUUACGAAACAGAUCUCGAAAAUCGCAUCGAAUUUCUCUUUUACAAGUACAAACCCCACUGAUUAUGAUUAUUACCAAACUCCGUUUAAUUAUAGAUUCGAUCUAAAUGAAACCAAUGAAAAAUUUCUUAGCUACGAGGAUAAAUUCAGUCCAAGAAAAUUUAAUGGUGAUGAAUUCACUAGCAAUAUGA
antisense: UCAUAUUGCUAGUGAAUUCAUCACCAUUAAAUUUUCUUGGACUGAAUUUAUCCUCGUAGCUAAGAAAUUUUUCAUUGGUUUCAUUUAGAUCGAAUCUAUAAUUAAACGGAGUUUGGUAAUAAUCAUAAUCAGUGGGGUUUGUACUUGUAAAAGAGAAAUUCGAUGCGAUUUUCGAGAUCUGUUUCGUAAUAAUUUUUAGCGCCUCGUGUAAUCGAAAUCGUGAAUAACCUGGCUGUUCAAUGGUAGGGAAAAAUUGUCGGAAUGUGUCAUAACCAACGACCAAAUUACCUCCACUAUUCGAGGAGAGAUCAAUAAUCAUUUUUGUUUUCCCCAAAGAUAAACACUCAGCAAUUAAAGUCUGUAUUACUGACUGUGUUUGGAGCACAGAUUUAGCCUGG
B3: GS3919 (nucleic acid)
sense: AUUGCGCCAAAAUGUGAGGUAAGGAUUACUAACUUGCUGAGCUUGAAGAACUCAUCAACACCAGUAUCUUUAGCUGGUAAACAAGUUAAGCAAAUUCAAAGCAACUUACCAUCGACAAGUAAACAACUUGGAAUAUUUGCAAAAGAAAACAUCUUACCGGGCGAAUCAAUCCUUAAAGAGCUGUCAUAUCUCACUGUUAAUAAUAGACUCAAAGGCCCUCUAUGUGAUGCUUGUAGUGCUGAAAUUCCUUCUCUAUAUGAAACUGAAAGUACAGCAAUGAGCUGUCUCGAGUGUGAUGAAAUCUCAUUCUGUAGUGAUGAAUGCAAACGUGGAGCUGAGCUCGAAUAUCAUCCAGCAGUAUGUGGUAAAGAUGUUGAGACAAUUGGCAAGGACUGG
antisense: CCAGUCCUUGCCAAUUGUCUCAACAUCUUUACCACAUACUGCUGGAUGAUAUUCGAGCUCAGCUCCACGUUUGCAUUCAUCACUACAGAAUGAGAUUUCAUCACACUCGAGACAGCUCAUUGCUGUACUUUCAGUUUCAUAUAGAGAAGGAAUUUCAGCACUACAAGCAUCACAUAGAGGGCCUUUGAGUCUAUUAUUAACAGUGAGAUAUGACAGCUCUUUAAGGAUUGAUUCGCCCGGUAAGAUGUUUUCUUUUGCAAAUAUUCCAAGUUGUUUACUUGUCGAUGGUAAGUUGCUUUGAAUUUGCUUAACUUGUUUACCAGCUAAAGAUACUGGUGUUGAUGAGUUCUUCAAGCUCAGCAAGUUAGUAAUCCUUACCUCACAUUUUGGCGCAAU
B4: GS3920 (nucleic acid)
sense: UCAACGUAAAUUUUAUAAGCAAGGCUCUGGUAAAGUGGAACCUUACUUUUUAAUCCUCAACAAGGAAGGAGAGUUCAUUGAUGUAGUCGUUGAAGGGCUGAUGAAUAACUUCAUAAGAUGUCAACAAACAAGAAAAAUCUCUACAGAAUUAAUUUCAGAUGCACCUAAUCAACCGGUACCAUCUCAAAUAUCUGGAUAUCAAUGUGGUAAAUUUUUUUUUAGCAAUGAGGAACUUGAGAAUACUGCAAAUGUGGCUAGAGAUAUCAUGCUUCAGAGAAGUCAAAAUAAAAUUCCCACUAAGUAUAA
antisense: UUAUACUUAGUGGGAAUUUUAUUUUGACUUCUCUGAAGCAUGAUAUCUCUAGCCACAUUUGCAGUAUUCUCAAGUUCCUCAUUGCUAAAAAAAAAUUUACCACAUUGAUAUCCAGAUAUUUGAGAUGGUACCGGUUGAUUAGGUGCAUCUGAAAUUAAUUCUGUAGAGAUUUUUCUUGUUUGUUGACAUCUUAUGAAGUUAUUCAUCAGCCCUUCAACGACUACAUCAAUGAACUCUCCUUCCUUGUUGAGGAUUAAAAAGUAAGGUUCCACUUUACCAGAGCCUUGCUUAUAAAAUUUACGUUGA
B5: GS3921 (nucleic acid)
sense: UUCGCGGUGUCUUCCUUUCCAGAGCCUUUAGUCUUUGAAGGAUUUUCUUCUUCAUCCCCAUCUUCACCCUCCGCUUCUGCAUUGACUUCGUCGGCCUUUUUUGCUUUUUUUUCUUCCCCAGAUUUGCCUUUCGUUGUUAGAGCUCCUAGGCCACUAGCGAGAGAAUUUGAACCAUUACCACCGCCAACAAGAACUCCUGCUUUACCUCCUAUGGUCACCUCUUGAAUACUCUGACUUUCAUUUUCCGCAGCAUUGGCUUGCUUUUUGGAAGAUGAGCUAGAGUCAUGUGAUUUUUCUGAAUUCGAUGCCUUAUUUUUCUGAUCUUUU
antisense: AAAAGAUCAGAAAAAUAAGGCAUCGAAUUCAGAAAAAUCACAUGACUCUAGCUCAUCUUCCAAAAAGCAAGCCAAUGCUGCGGAAAAUGAAAGUCAGAGUAUUCAAGAGGUGACCAUAGGAGGUAAAGCAGGAGUUCUUGUUGGCGGUGGUAAUGGUUCAAAUUCUCUCGCUAGUGGCCUAGGAGCUCUAACAACGAAAGGCAAAUCUGGGGAAGAAAAAAAAGCAAAAAAGGCCGACGAAGUCAAUGCAGAAGCGGAGGGUGAAGAUGGGGAUGAAGAAGAAAAUCCUUCAAAGACUAAAGGCUCUGGAAAGGAAGACACCGCGAA
B6: GS3922 (nucleic acid)
sense: CCCGAAUGAAUGCUAUCAACAUGGGAUAGUAGUUCACGUUCACUCCGAAAUUUUAUAUUACAAAACAUACACUCUGCAUGUUCUUUUCGAAUAUGAGCCUGUAACUUUGAAUAACUUGUGAAGCCUAGAUUUAAUGGCGUACCAUCUGAAUUAAAAGAUCCUGUCAAGCAACAUUCAUUACAGAAAUAUCGAGCACUGCCAUGAGCUCGCUCUUGGUGUCGACGAAGGCUGGCGGAACUAUCGAAACCUGAGUUGCAACUUUCGCCAGUGACAGGGUCAACAUGGACACAGGGAUACGGCAUAAGCUGAAGAUGUUCAGAGCGAAUAUGACGCUGGAGAGUUUGAUGUUUUCGGAAAUUUUGGCUACAGGGUGGGUAAUUUGUACAUUUGAAU
antisense: AUUCAAAUGUACAAAUUACCCACCCUGUAGCCAAAAUUUCCGAAAACAUCAAACUCUCCAGCGUCAUAUUCGCUCUGAACAUCUUCAGCUUAUGCCGUAUCCCUGUGUCCAUGUUGACCCUGUCACUGGCGAAAGUUGCAACUCAGGUUUCGAUAGUUCCGCCAGCCUUCGUCGACACCAAGAGCGAGCUCAUGGCAGUGCUCGAUAUUUCUGUAAUGAAUGUUGCUUGACAGGAUCUUUUAAUUCAGAUGGUACGCCAUUAAAUCUAGGCUUCACAAGUUAUUCAAAGUUACAGGCUCAUAUUCGAAAAGAACAUGCAGAGUGUAUGUUUUGUAAUAUAAAAUUUCGGAGUGAACGUGAACUACUAUCCCAUGUUGAUAGCAUUCAUUCGGG
B7: GS3925 (nucleic acid)
sense: UUUGAAAAACACACAACCCCAGAAGAAUACGAUAGCAUAUCAUUGGCCAAGCACCCUCAGUUGCAUGUUGAGGAUGAUUCAUGGCAUAGAGCAACUGGUACUUGUAAGUGUAAUAACUGUUAAUGAAGUAUAUAAUCCCAAAAAAUAGAACCAUAUAACCAGCCGGUAGAAUUGAGUAUACAAUACACAAAAUGUAUACAAGGAUUGCAGAGGGUAGAUAAAACCCGUAUUUGAAGACAGGAGGCUGUGUAAGCUCCCAGCGAUCCCUAGGGCUUUUUGAAUACAUACGCAUAAUUGGAUAUAGAGACACACUGCCAAACUCUAAGAGCCUUAAUGGUAUGAAACCAA
antisense: UUGGUUUCAUACCAUUAAGGCUCUUAGAGUUUGGCAGUGUGUCUCUAUAUCCAAUUAUGCGUAUGUAUUCAAAAAGCCCUAGGGAUCGCUGGGAGCUUACACAGCCUCCUGUCUUCAAAUACGGGUUUUAUCUACCCUCUGCAAUCCUUGUAUACAUUUUGUGUAUUGUAUACUCAAUUCUACCGGCUGGUUAUAUGGUUCUAUUUUUUGGGAUUAUAUACUUCAUUAACAGUUAUUACACUUACAAGUACCAGUUGCUCUAUGCCAUGAAUCAUCCUCAACAUGCAACUGAGGGUGCUUGGCCAAUGAUAUGCUAUCGUAUUCUUCUGGGGUUGUGUGUUUUUCAAA
B8: GS3927 (nucleic acid)
sense: CUGAAUCAGAUGAUGGGGGUAAUGAACGUAUGAUAAAUAGUAAGAAACCGCGAAGUACAUGCUCGAAGACCCUAAGGGAAAAAGAUUUGAAAGAUGAUAAAGAAAAGUCCAGAUCUGAUGCUGUAGCUAAAAGAAAUGGUCGUACAGAGCGGAGAAGAACUGAAGAUCAAGAAACACAGAAGGAAUUGUCAAUUGGUACUAAAAAUACAAUGUGCAAUAGCACAGACUCUUCUAAAGUCUCUACAACGAUUGAAUCUCUUGAGUCUCCGACAUUAUCAAAUGGUAGAGUUUCAGACAAUUCAUCUAACAACCAAUUUCCAAUACCUUUAAAAAAAAGCUACCGUAAUUCAAAUUCUAGGAAAGGGAAAUUAGCCAAAAAUAAUUUCACAAGGGAAU
antisense: AUUCCCUUGUGAAAUUAUUUUUGGCUAAUUUCCCUUUCCUAGAAUUUGAAUUACGGUAGCUUUUUUUUAAAGGUAUUGGAAAUUGGUUGUUAGAUGAAUUGUCUGAAACUCUACCAUUUGAUAAUGUCGGAGACUCAAGAGAUUCAAUCGUUGUAGAGACUUUAGAAGAGUCUGUGCUAUUGCACAUUGUAUUUUUAGUACCAAUUGACAAUUCCUUCUGUGUUUCUUGAUCUUCAGUUCUUCUCCGCUCUGUACGACCAUUUCUUUUAGCUACAGCAUCAGAUCUGGACUUUUCUUUAUCAUCUUUCAAAUCUUUUUCCCUUAGGGUCUUCGAGCAUGUACUUCGCGGUUUCUUACUAUUUAUCAUACGUUCAUUACCCCCAUCAUCUGAUUCAG

Tested on: E. necator
Assay: Leaf disc assay, dry inoculum (settling tower), decrease in disease severity / hyphal growth (Example 2)
Settings: decrease in disease severity (hyphal growth) relative to untreated control, value ± SE; for % decrease =/− SE TP1: time point 1 (untreated control hyphal growth ≥50%); for % decrease =/− SE TP2: time point 2

Molecule | % decrease =/− SE TP1 [%] | % decrease =/− SE TP2 [%]
B1 | 8 ± 4 | –
B2 | – | 29 ± 12
B3 | 23 ± 8 | 16 ± 9
B4 | 14 ± 11 | 12 ± 12
B5 | 3 ± 8 | 8 ± 8
B6 | – | 27 ± 12
B7 | 18 ± 4 | 3 ± 6
B8 | 7 ± 3 | –
